Laboratory results from US20110008829A1 (University of California, published 2011).

B3: HMGR alone (enzyme, Saccharomyces cerevisiae, UniProt P12683 554-1054, looked up)
chain: VLTNKTVISGSKVKSLSSAQSSSSGPSSSSEEDDSRDIESLDKKIRPLEELEALLSSGNTKQLKNKEVAALVIHGKLPLYALEKKLGDTTRAVAVRRKALSILAEAPVLASDRLPYKNYDYDRVFGACCENVIGYMPLPVGVIGPLVIDGTSYHIPMATTEGCLVASAMRGCKAINAGGGATTVLTKDGMTRGPVVRFPTLKRSGACKIWLDSEEGQNAIKKAFNSTSRFARLQHIQTCLAGDLLFMRFRTTTGDAMGMNMISKGVEYSLKQMVEEYGWEDMEVVSVSGNYCTDKKPAAINWIEGRGKSVVAEATIPGDVVRKVLKSDVSALVELNIAKNLVGSAMAGSVGGFNAHAANLVTAVFLALGQDPAQNVESSNCITLMKEVDGDLRISVSMPSIEVGTIGGGTVLEPQGAMLDLLGVRGPHATAPGTNARQLARIVACAVLAGELSLCAALAAGHLVQSHMTHNRKPAEPTKPNNLDATDINRLKDGSVTCIKS
notes: Control prey of the GST pull-down; also called HMGR prey without an N-terminal SH3 domain

How the values were obtained:
[1] = target: T1, Crk SH3 (SH3 domain of mouse Crk, residues 134-191) (mouse, UniProt Q64010 134-191); test: method not described; footnote: affinities reported as measured in trans
T1 construct: range 134-191; also called mouse Crk SH3 domain
T1 sequence (Q64010 134-191 limits assumed): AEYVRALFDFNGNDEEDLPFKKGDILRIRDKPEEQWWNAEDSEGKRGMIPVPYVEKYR

[2] = target: T2, WASP GBD (GTPase Binding Domain of rat N-WASP, residues 196-274) (rat, UniProt O08816 196-274); test: as above
T2 construct: range 196-274; also called rat N-WASP GBD
T2 sequence (O08816 196-274 limits assumed): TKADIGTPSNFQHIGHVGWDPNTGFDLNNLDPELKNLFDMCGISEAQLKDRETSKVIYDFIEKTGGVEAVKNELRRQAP

[3] = target: T3, N-terminal GST-tagged HMGS with 1 C-terminal SH3 peptide ligand (Saccharomyces cerevisiae, UniProt P54839 1-491); test: GST pull-down, GST-HMGS as bait, HMGR as prey
T3 construct: Bait of the GST pull-down; also called HMGS bait with 1 SH3 ligand; not shown: glutathione S-transferase (GST) tag at the N-terminus
T3 sequence: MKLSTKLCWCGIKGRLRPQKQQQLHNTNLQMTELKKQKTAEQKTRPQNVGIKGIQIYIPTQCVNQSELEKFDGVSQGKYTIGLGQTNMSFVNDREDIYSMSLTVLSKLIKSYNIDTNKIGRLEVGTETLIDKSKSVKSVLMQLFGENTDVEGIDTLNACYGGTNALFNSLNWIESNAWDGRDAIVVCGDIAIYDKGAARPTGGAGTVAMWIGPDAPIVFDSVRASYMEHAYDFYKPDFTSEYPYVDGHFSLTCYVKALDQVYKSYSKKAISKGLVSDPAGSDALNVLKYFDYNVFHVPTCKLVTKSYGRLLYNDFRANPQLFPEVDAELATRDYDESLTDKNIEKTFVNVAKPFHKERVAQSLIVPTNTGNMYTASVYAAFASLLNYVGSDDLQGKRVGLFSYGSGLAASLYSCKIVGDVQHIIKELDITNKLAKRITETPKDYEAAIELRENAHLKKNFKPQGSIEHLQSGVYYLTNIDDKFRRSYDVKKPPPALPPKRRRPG
Text: (§1) As a direct test of engineered enzyme co-recruitment, the bottleneck enzymatic step of the mevalonate biosynthetic pathway (HMGR-catalyzed turnover of HMG-CoA to mevalonate) was targeted for flux improvement. A synthetic complex of HMGS and HMGR was created by recombining a varying number of SH3 (Src Homology 3 domain from the adapter protein CRK) interaction ligands to the C-terminus of HMGS and recombining an SH3 domain to the N-terminus of HMGR (FIG. 2a). This simple design also allowed for control over the relative ratio of these two enzymes at the resultant complex. The ability of these proteins to interact in an SH3-dependent manner was probed in a GST pull-down experiment (FIG. 2b). […] As prey, an SH3 domain was recombined to the N-terminus of HMGR and compared to HMGR alone. No significant interaction was observed between HMGS and HMGR without engineered SH3 interactions. However, HMGR with an N-terminal SH3 domain was pulled down by GST-tagged HMGS in a ligand-dependent manner. […] Thus, the relative stoichiometries of these two enzymes were controlled at the complex by varying the number of interaction ligands tethered to HMGS.

[4] = target: T4, HMGR with an N-terminal SH3 domain (mouse; Saccharomyces cerevisiae, UniProt Q64010 134-191; P12683 554-1054); test: GST pull-down, GST-HMGS as bait, HMGR as prey
T4 construct: also called SH3 domain recombined to the N-terminus of HMGR; HMGR prey with an N-terminal SH3 domain
Text: as §1

HMGR alone = target: B3; test: GST pull-down, GST-HMGS as bait, HMGR as prey
Text: as §1

[5] = target: T5, Syn PDZ (PDZ domain of mouse α-syntrophin, residues 77-171) (mouse, UniProt Q61234 77-171); test: method not described; footnote: affinities reported as measured in trans
T5 construct: range 77-171; also called Mouse α-syntrophin (syn) PDZ domain
T5 sequence (looked up): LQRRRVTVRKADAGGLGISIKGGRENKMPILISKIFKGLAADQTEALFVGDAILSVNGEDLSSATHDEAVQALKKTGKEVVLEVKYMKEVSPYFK

B1: SH3 lig. (peptide)
peptide: PPPALPPKRRRPG
notes: also called SH3 peptide ligand
With B1 as the binder, how does the Kd [1] read?
The Kd was 100 nM.

B2: GBD lig. (peptide)
peptide: LVGALMHVMQKRSRAIHSSDEGEDQAGDEDED
notes: also called GBD ligand
Which Kd [2] does the source give for B2 here?
The Kd was 1000 nM.

Does B3 bind [3]?
Result: no binding

B4: N-terminal GST-tagged HMGS with 0 C-terminal SH3 peptide ligands (enzyme, UniProt P54839 1-491, looked up)
chain: MKLSTKLCWCGIKGRLRPQKQQQLHNTNLQMTELKKQKTAEQKTRPQNVGIKGIQIYIPTQCVNQSELEKFDGVSQGKYTIGLGQTNMSFVNDREDIYSMSLTVLSKLIKSYNIDTNKIGRLEVGTETLIDKSKSVKSVLMQLFGENTDVEGIDTLNACYGGTNALFNSLNWIESNAWDGRDAIVVCGDIAIYDKGAARPTGGAGTVAMWIGPDAPIVFDSVRASYMEHAYDFYKPDFTSEYPYVDGHFSLTCYVKALDQVYKSYSKKAISKGLVSDPAGSDALNVLKYFDYNVFHVPTCKLVTKSYGRLLYNDFRANPQLFPEVDAELATRDYDESLTDKNIEKTFVNVAKPFHKERVAQSLIVPTNTGNMYTASVYAAFASLLNYVGSDDLQGKRVGLFSYGSGLAASLYSCKIVGDVQHIIKELDITNKLAKRITETPKDYEAAIELRENAHLKKNFKPQGSIEHLQSGVYYLTNIDDKFRRSYDVKK
notes: Bait of the GST pull-down; also called HMGS bait with 0 SH3 ligands; not shown: glutathione S-transferase (GST) tag at the N-terminus
Does B4 bind [4]?
Result: no binding

Does B4 bind (HMGR alone)?
Result: no binding

B5: PDZ lig. (peptide)
peptide: GVKESLV
notes: also called PDZ ligand; GVKESLV
B5 was tested. Which Kd [5] did it give?
The Kd was 8000 nM.
